Common to all, as to test: cell-based or functional assay
The target of experiment [1] is hTrkB-a isoform fused to a small peptide epitope, in U2OS cells (Discoverx Pathhunter) (human) (UniProt Q16620).
Experiment [2] concerns the target hTrkA in the SHC1 recruitment assay (U2OS, Discoverx Pathhunter) (human) (UniProt P04629).
Experiment [3] addresses hTrkC in the SHC1 recruitment assay (U2OS, Discoverx Pathhunter) (human) (UniProt Q16288).

Sequence of hTrkB-a isoform fused to a small peptide epitope, in U2OS cells (Discoverx Pathhunter) (human) (Q16620 32-822): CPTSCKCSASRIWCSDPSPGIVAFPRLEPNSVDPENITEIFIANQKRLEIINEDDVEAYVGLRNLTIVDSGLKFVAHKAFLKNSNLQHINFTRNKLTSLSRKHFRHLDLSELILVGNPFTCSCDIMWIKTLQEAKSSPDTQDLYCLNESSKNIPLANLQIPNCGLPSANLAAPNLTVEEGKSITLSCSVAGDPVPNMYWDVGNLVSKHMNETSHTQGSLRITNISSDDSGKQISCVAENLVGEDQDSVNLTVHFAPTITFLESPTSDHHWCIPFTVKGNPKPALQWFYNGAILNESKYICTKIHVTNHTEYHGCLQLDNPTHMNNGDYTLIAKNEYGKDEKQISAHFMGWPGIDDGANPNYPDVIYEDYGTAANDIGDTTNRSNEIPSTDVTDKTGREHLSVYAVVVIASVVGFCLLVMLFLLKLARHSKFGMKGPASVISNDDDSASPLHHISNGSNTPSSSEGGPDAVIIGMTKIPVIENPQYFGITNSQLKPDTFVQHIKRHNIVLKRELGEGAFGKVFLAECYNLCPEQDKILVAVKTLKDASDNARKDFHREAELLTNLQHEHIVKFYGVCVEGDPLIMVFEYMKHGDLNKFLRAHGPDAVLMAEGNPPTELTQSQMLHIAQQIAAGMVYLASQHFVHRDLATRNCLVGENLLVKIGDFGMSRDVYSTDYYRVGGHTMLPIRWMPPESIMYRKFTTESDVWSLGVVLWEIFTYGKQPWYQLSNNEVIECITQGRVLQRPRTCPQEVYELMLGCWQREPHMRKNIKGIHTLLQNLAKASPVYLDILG
Sequence of hTrkC in the SHC1 recruitment assay (U2OS, Discoverx Pathhunter) (human) (Q16288 32-839): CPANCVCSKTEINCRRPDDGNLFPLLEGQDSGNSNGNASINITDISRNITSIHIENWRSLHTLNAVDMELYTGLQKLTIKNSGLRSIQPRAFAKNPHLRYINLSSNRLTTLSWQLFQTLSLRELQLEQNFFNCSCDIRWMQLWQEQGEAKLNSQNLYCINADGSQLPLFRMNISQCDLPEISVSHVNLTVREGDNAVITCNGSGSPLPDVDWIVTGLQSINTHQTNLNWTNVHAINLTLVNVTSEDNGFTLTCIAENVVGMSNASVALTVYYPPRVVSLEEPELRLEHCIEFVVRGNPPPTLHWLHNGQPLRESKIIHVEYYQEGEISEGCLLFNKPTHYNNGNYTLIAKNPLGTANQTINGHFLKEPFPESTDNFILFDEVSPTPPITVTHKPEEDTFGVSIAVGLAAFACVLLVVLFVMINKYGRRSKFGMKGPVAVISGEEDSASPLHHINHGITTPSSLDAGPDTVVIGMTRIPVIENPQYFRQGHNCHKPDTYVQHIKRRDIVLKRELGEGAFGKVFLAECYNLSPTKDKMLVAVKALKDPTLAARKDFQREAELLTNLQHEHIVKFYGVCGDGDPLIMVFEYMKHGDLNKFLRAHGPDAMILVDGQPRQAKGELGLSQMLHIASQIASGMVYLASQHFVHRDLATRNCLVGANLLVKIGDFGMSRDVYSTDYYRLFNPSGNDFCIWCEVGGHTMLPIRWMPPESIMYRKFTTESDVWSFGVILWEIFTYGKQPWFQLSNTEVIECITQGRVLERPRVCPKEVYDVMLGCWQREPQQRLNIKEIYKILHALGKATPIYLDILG
Sequence of hTrkA in the SHC1 recruitment assay (U2OS, Discoverx Pathhunter) (human) (P04629 33-796): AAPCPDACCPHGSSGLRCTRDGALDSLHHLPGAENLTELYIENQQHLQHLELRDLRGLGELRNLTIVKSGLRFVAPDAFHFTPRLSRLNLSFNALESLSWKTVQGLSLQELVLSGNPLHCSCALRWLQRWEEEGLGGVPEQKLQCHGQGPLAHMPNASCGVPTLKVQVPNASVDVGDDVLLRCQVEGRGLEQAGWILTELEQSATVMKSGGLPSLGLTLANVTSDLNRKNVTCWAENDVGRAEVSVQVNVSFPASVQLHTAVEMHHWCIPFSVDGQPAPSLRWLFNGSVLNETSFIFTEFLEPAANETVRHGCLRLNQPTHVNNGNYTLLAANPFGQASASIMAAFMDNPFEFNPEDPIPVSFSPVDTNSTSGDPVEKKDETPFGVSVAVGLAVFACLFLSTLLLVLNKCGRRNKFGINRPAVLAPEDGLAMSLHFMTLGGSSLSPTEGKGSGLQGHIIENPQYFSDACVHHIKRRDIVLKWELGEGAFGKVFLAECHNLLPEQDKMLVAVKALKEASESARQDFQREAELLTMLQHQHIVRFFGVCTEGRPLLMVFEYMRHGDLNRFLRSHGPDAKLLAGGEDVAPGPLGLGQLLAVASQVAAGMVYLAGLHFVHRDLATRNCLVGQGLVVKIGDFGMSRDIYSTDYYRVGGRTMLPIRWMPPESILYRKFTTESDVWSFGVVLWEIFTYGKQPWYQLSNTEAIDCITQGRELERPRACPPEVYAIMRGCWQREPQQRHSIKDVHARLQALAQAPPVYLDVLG
Sequence of NGF (R&D 256GF) (ligand) (P01138 122-241): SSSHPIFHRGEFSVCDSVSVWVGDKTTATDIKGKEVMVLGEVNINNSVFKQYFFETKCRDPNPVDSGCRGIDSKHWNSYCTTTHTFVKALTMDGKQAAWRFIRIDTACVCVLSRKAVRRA

With NGF (R&D 256GF) (ligand), the EC50, SHC1 recruitment assay in experiment [1] was found to be 1.59 nM.

Take hIgG control antibody: the Fold-increase, SHC1 recruitment assay in experiment [1] was determined as 1.1 fold; in experiment [2] it was 1.1 fold; in experiment [3], 1 fold.

Values taken from patent US20200123260A1.
